In patent US20180064825A1 (INSERM INSTITUT NATIONAL DE LA SANTE ET DE LA RECHERCHE …, published 2018):

Assays:
[1] = target: T1, human PD-L1 (Programmed Cell Death 1 Ligand 1) (human, UniProt Q9NZQ7 19-290); test: Scatchard analysis on cells (MDA-MB-231 used for binding assays), 3-3000 pM ^111In-PD-L1.3.1, 4 h on ice, gamma counter; 111In-labeled antibody; Scatchard affinity on MDA-MB-231 cells
T1 construct: whole, on cells; Endogenous PD-L1 on breast cancer cell lines; also called CD274; PDCD1LG1
Description: (§1) Cells were cultured to confluency in six-well plates and were incubated for 4 h on ice with increasing concentrations ¹¹¹In-PD-L1.3.1 (3-3000 pM) in 1 ml RPMI1640 containing 0.5% BSA. Non-specific binding was determined by co-incubation with 100 nM PD-L1.3.1. After incubation, cells were washed with PBS and the cell-associated activity was measured in a shielded well-type gamma counter. The specific binding (total binding−nonspecific binding) was plotted against the bound/free ratio. Data were analyzed by linear regression to determine PD-L1 receptor density per cell and to determine the Kd of ¹¹¹In-PD-L1.3.1.

[2] = target: T1, human PD-L1 (Programmed Cell Death 1 …); test: saturation binding / Scatchard analysis on cells, 3-3000 pM ^111In-PD-L1.3.1 in 1 ml, 4 h on ice, non-specific binding (100 nM PD-L1.3.1) subtracted; the panel does not name the cell line (MDA-MB-231 cells were used in subsequent binding assays)
Description: as §1

[3] = target: T1, human PD-L1 (Programmed Cell Death 1 …); test: competition on MDA-MB-231 cells, 4 h on ice; unlabeled PD-L1.3.1 (1-1000 pM) against 20 pM ^111In-PD-L1.3.1 as competitor; gamma counter; unlabeled antibody; competition IC50 on MDA-MB-231 cells
Description: MDA-MB-231 cells were cultured to confluency in six-well plates. The 50% inhibitory concentration (IC₅₀) of PD-L1.3.1 blocking of ¹¹¹In-PD-L1.3.1 binding was determined by incubating the cells for 4 h on ice in 1 ml RPMI1640 0.5% BSA, containing 20 pM ¹¹¹In-PD-L1.3.1 (1 kBq) and increasing concentrations of unlabeled PD-L1.3.1 (1-1000 pM). After incubation, cells were washed with PBS and the cell-associated activity was measured in a gamma counter. The IC₅₀ was defined as the antibody concentration that was required to inhibit binding of the radio labeled antibody by 50%. IC₅₀ values were calculated using GraphPad Prism.

T1 sequence (Q9NZQ7 19-290): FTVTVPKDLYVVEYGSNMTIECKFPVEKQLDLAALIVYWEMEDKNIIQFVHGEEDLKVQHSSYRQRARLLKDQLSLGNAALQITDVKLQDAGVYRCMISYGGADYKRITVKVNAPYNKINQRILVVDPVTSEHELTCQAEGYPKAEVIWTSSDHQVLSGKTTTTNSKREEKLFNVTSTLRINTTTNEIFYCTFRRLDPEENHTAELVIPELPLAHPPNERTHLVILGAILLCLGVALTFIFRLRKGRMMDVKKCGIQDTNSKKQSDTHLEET

| Binder | Kd [1] | Kd [2] | IC50 [3] |
| --- | --- | --- | --- |
| ^111In-DTPA-PD-L1.3.1 (antibody, V domains shown, ITC-DTPA conjugated and chelating ^111In; residues and chain not stated) VH: EVQLQQSGTELVKPGASVKLSCTTSGFNIQDTYMHWVKQRPEQGLEWIGWIDPANGNTKYDPKFQGKATIIADTSSNTAYLQLRGLTSEDTAVYYCARSGVSTAHFDYWGQGTTLTVSS VL: QIVLSQSPAILSASPGEKVTMTCRASSSVSFMHWYQQKPGSSPKPWIYATSNLASGVPTRFSGSGSGTSYSLTLSRVEAEDAATYYCQQWSSYPRTFGGGTKLEIK | 0.97 nM | 1 nM | – |
| PD-L1.3.1 antibody (murine monoclonal IgG1, unlabeled) (antibody, V domains shown, also called PD-L1.3.1 mAb; unlabeled PD-L1.3.1) VH: EVQLQQSGTELVKPGASVKLSCTTSGFNIQDTYMHWVKQRPEQGLEWIGWIDPANGNTKYDPKFQGKATIIADTSSNTAYLQLRGLTSEDTAVYYCARSGVSTAHFDYWGQGTTLTVSS VL: QIVLSQSPAILSASPGEKVTMTCRASSSVSFMHWYQQKPGSSPKPWIYATSNLASGVPTRFSGSGSGTSYSLTLSRVEAEDAATYYCQQWSSYPRTFGGGTKLEIK | – | – | 0.15 nM |
